Results from patent US20080119412A1 (NONO, published 2008).

Experiments:
Experiment in all cases: G assay
[1] = biological target: Peptide #1829, biotin-…
[2] = biological target: …
[3] = biological target: …; remark: listed apart in the source
[4] = biological target: Peptide #1791, biotin-…
[5] = biological target: …; remark: listed apart in the source
[6] = biological target: …; remark: listed apart in the source
[7] = biological target: Peptide #1841, biotin-…
[8] = biological target: Peptide #1852, biotin-[…]
[9] = biological target: Peptide #1846, biotin-[…]

Measured: binding result

B1: GST-INADL PDZ domain 3 fusion protein (other, not shown: a dimerising Fc or GST; small tags and cut ends)
chain: PGSDSSLFETYNVELVRKDGQSLGIRIVGYVGTSHTGEASGIYVKSIIPGSAAYHNGHIQVNDKIVAVDGVNIQGFANHDVVEVLRNAGQVVHLTLVRRKTSSSTSRIHRD
notes: also called INADL d3 (96.3); INADL D3
binds: [1] | [2]

B2: GST-PAR3 PDZ domain 3 fusion protein (other, not shown: a dimerising Fc or GST; small tags and cut ends)
chain: PREFLTFEVPLNDSGSAGLGVSVKGNRSKENHADLGIFVKSIINGGAASKDGRLRVNDQLIAVNGESLLGKTNQDAMETLRRSMSTEGNKRGMIQLIVASRISKCNELKSNSS
notes: also called PAR3 d3 (278.1); PAR3 D3
binds: [3] | [4] | [5] | [2]

B3: GST-ZO-1 PDZ domain 2 fusion protein (other, not shown: a dimerising Fc or GST; small tags and cut ends)
chain: ISSQPAKPTKVTLVKSRKNEEYGLRLASHIFVKEISQDSLAARDGNIQEGDVVLKINGTVTENMSLTDAKTLIERSKGKLKMVVQRDRATLLNSS
notes: also called ZO-1 d2 (241.3); ZO-1 D2
binds: [3] | [4] | [6] | [7] | [5] | [1] | [2] | [8]

B4: GST-RIM2 PDZ domain 1 fusion protein (other, not shown: a dimerising Fc or GST; small tags and cut ends)
chain: TLNEEHSHSDKHPVTWQPSKDGDRLIGRILLNKRLKDGSVPRDSGAMLGLKVVGGKMTESGRLCAFITKVKKGSLADTVGHLRPGDEVLEWNGRLLQGATFEEVYNIILESKPEPQVELVVSRPIG
notes: also called RIM2 (177.4); RIM-2 d1
binds: [9] | [3] | [4] | [6] | [7] | [1] | [2] | [8]

B5: GST-Syntrophin 1 alpha PDZ domain 1 fusion protein (other, not shown: a dimerising Fc or GST; small tags and cut ends)
chain: QRRRVTVRKADAGGLGISIKGGRENKMPILISKIFKGLAADQTEALFVGDAILSVNGEDLSSATHDEAVQVLKKTGKEVVLEVKYMKDVSPYFK
notes: also called Syntrophin 1 alpha d1 (52.5); Syntrophin 1 alpha D1
binds: [5]
